In brackets after ≈: the same amount, converted by molar mass. Entries after “also recorded” stand apart in the source; their conditions may differ.
Experiments:
[1] = tested on: Human colon adenocarcinoma (HT-29) cells; experiment: In-vitro cytotoxicity in HT-29 cells; format: cell-based
Description: FIGS. 24a and 24b are graphs illustrating the in-vitro cytotoxic effects of SP1-DOX complex. FIG. 24a—HT-29 cells cultured in 96 well microtiter plates were exposed to uncomplexed DOX (closed oval, magenta) or SP1-DOX complex (closed triangle, blue) prepared as described in FIGS. 9-15, at the indicated concentrations. FIG. 24b—HT-29 cells were exposed to uncomplexed SP1 (without DOX) (closed diamond, blue) or SP1-DOX complex (closed triangle, yellow) at indicated concentrations. Proportion of living cells was determined by MTT assay, and the IC50 was calculated.
HT-29 cells were prepared as in FIG. 24 above.
Human colon adenocarcinoma (HT-29) cells. The cells were grown in 50-ml flasks containing DMEM medium (Biological Industries, Bet Haemek), supplemented with 10% fetal calf serum, 1% glutamine and 1% Antibiotic-Antimicotic solution (Biolab, Israel). The cells were trypsinizated, and 2 ml medium containing 5×10^4 cells were plated in each well of a 6-wells plate. SP1, drugs or SP1-complexed with drugs was added at the indicated concentrations. The cells were incubated at 37° C. in a humidified atmosphere containing 5% CO2.After 48 hours the medium in the presence or absence of drugs was replaced in each well respectively, to maintain a constant supply of ingredients and drugs. After four days the medium was removed and the number of viable cells in the cultures was determined by spectroscopy.
The human colorectal adenocarcinoma cell line, HT-29, was used to evaluate the biological activity of the SP1-DOX complex, compared to that of the free drug and un-complexed SP1 protein. […] Thus, the SP1-DOX complex is at least as biologically active as free DOX.

[2] = Doxorubicin complex formation and release (ultrafiltration, HPLC, SDS PAGE fluorescence); format: binding; conditions: for DOX complex formation: reducing conditions (DTT or GSH)
Experimental: Pure wild type SP1 or Cys2 SP1 mutant (1.5 mg/ml in 20 mM Sodium Phosphate buffered, pH=6.8) were incubated overnight at room temp, with DOX 1 mg/ml in the presence of DTT (10 mM), with gentle rolling. Binding reaction was stopped by adding hydrogen peroxide (0.01%), followed by ultra filtration (using 30 kD cutoff filter) and extensive wash until follow-through become colorless. Optical density was measured at both 278 and 477 nm using nanodrop spectrophotometer. Note the dramatic effect of the reducing agent on drug binding by the Cys2 SP1, compared to the absence of effect on the wild type SP1.
FIG. 13 is a histogram illustrating the redox-dependent release of Doxorubicin by Cys2 SP1. Doxorubicin (DOX) was complexed within Cys2 SP1 as described in FIGS. 9-12 above. Release of the drug in the presence of 0, 2 and 20 mM GSH was measured by ultrafiltration and size exclusion HPLC analysis (detection at 228 and 475 nm);
FIG. 14 is a histogram illustrating the effect of oxidation on DOX complex formation by Cys2 SP1. Doxorubicin (DOX) was reacted with Cys2 SP1 and wild type SP1 as described in FIGS. 9-13 above. Oxidized protein indicates exposure to excess of H2O2 prior to treatment with GSH. DOX complex formation was measured by ultrafiltration and size exclusion HPLC analysis (detection at 228 and 475 nm). […] 1=the retentate; 2=the flow through; and 3=a DOX standard 20 μg/ml.
FIG. 17 is a photograph of a fluorescent PAGE analysis illustrating effective complex formation with DOX by Cys2 and SP1 fusion proteins. Recombinant wild type (lanes 1 and 2), Cys2 (lanes 3 and 4), and SP1 fusion proteins having additional N-terminal tumor specific peptide RGD (CRGD, SEQ ID NO:151; fusion protein is SEQ ID NO: 5)(lanes 5 and 6), or RGD in reverse order (RGDC, SEQ ID NO: 152; fusion protein is SEQ ID NO: 6)(lanes 7 and 8) were reacted with DOX to form complex as described in FIGS. 9-14 above, and then separated on SDS-PAGE with (lanes 2, 4, 6 and 8) or without (lanes 1, 3, 5 and 7) denaturation by boiling in LSB.
(§1) Ultrafiltration was used for the detection of complex formation with the water soluble ligands FA and DOX which have a distinctive absorption properties and can be determined by spectroscopic measurements. […] Several additional washing cycles remove all remaining free FA and DOX, and the ligand-SP1 complex remains in the retained fraction.
(§2) Size exclusion chromatography is a common method for separation of molecules of different sizes under mild conditions and was employed to test FA and DOX complex formation under mild conditions. SP1 is eluted from the column after 7 min and is detected at 278 nm only, and free FA is eluted from the column (TSK G3000 SWXL, Tosohaas) after 16 min and is detected at 490 nm. The SP1-FA and SP1-DOX complexes also eluted at the same time but is detected also at 490 and 475 nm, respectively. DOX/SP1 ratio is determine from the standard curve obtained in solution.
Reverse phase HPLC (RP-HPLC) analysis separates between free DOX, PXT, and SP1. Both compounds bind to the resin (C-18) and are eluted at different acetonitrile concentrations, and detected at both 278 and 225 nm (SP1), 225 nm (PTX) and 477 nm (DOX).
Pyrogen free Cys2 SP1 variant (SEQ ID NO:3) in 20 mM (Na Phosphate buffer pH-6.7) final 2 mg/ml was diluted with DOX solution (Teva, Israel) 1:2 dilution final 1 mg/ml. Where indicated, GSH was added, and the solution is mixed overnight. Where indicated (oxidized), H2O2 is added to 0.1%, buffer added to 3× volume, and the solution is sonicated (3×22 sec. 1:1 pulse/pause at 3% amplitude 0.5 min. pause, using a Vibra-Cell 750 W sonicator).

[3] = Fluorescein-amine complex formation (ultrafiltration, size exclusion HPLC); format: binding
Experimental: FIG. 9 is a histogram showing redox-dependent complex formation with small molecules by Cys2 SP1. Pure Cys 2 mutant (1.5 mg/ml in Phosphate buffered saline, pH=7.5 (PBS)) was incubated for 2 hours at room temp, with I mM fluorescein-amine with or without glutathione (reduced form, GSH 3 mM). Binding reaction was stopped by adding hydrogen peroxide (0.01%), followed by ultra filtration (using a 30 kD cutoff filter) and extensive wash. Absorption analysis was conducted at both 278 and 492 nm, and the results expressed as the 492/278 ratio. Note that in the absence of the reducing agent (GSH), retention of the flourescein-amine is negligible;
FIG. 10 is a graphic representation of the redox-dependent fluorescein amine complex formation by Cys2 SP1, compared to the recombinant SP1. Fluorescein-amine was incubated with pure SP1 or Cys2 SP1 mutant (1.5 mg/ml in PBS pH=7.5) in the absence or presence of DTT (10 mM). Binding reaction was stopped by adding hydrogen peroxide (0.01%), followed by ultra filtration (using 30 kD cutoff filter) and extensive wash. Samples were analyzed by Gel filtration HPLC, and detected at both 228 and 490 nm. Calculated data is shown on the right.
FIG. 11 is a histogram illustrating the concentration dependent complex formation with fluorescein-amine by Cys2 SP1. Huorescien-amine (10, 33, 100 or 333 mM) was incubated with Cys 2 SP1 or pure wild type SP1 in the presence of 10 mM DTT, and the bound and unbound fractions analyzed by ultra-filtration and HPLC as in FIG. 10.
as §1, §2
5. Can complexed ligand be stabilized by association with the Cys2 SP1? Fluoresceine amine (FA): FA absorption peak is at 490 nm and at much lower extend at 278 nm (for a given FA concentration OD278/OD490=0.19)(see FIG. 31), when SP1 absorption peak is at 278 nm (see FIG. 30), and it is not detected at 490 nm. […] FA complexing with the Cys2 Sp1 variant was determined following incubation of FA and Cys2 SP1 variant in the absence or presence of GSH, followed by protein oxidation, ultra filtration (30 kDa cutoff) and exhaustive wash of the retained fraction with PBS with or without GSH. Absorption analysis at both 278 and 490 nm.

[4] = Heat stability (no precipitation after heat treatment); conditions: 10 min at 100° C. or 30 min at 85° C.
[5] = Oligomeric complex formation by SDS PAGE (unboiled samples); conditions: boiling and protease stability
Experimental: SP1 (20 μg) was prepared in SDS sample buffer at different SP1-monomer: SDS molar ratios and boiled (or not) (5 mM) prior to SDS-PAGE analysis. Heat stability of SP1 oligomer (10 μg) was tested in the same buffer at SP1-monomer: SDS=1:1733 and heated for 1 to 10 mM at different temperatures.
Purified 6HSP1 and ΔNSP1 were first denatured to the monomeric forms by boiling the proteins in SDS sample buffer. The denatured proteins were then separated in preparative SDS-PAGE, and visualized by Coomassie blue staining. The monomeric forms of two recombinant protein bands were excised. Gel slices that carried monomeric form of 6HSP1 (SEQ ID NO:7) and ΔNSP1 (SEQ ID NO:2) were mixed at 1:1 ratio (v/v). In order to enhance the surface/volume ratio, the gel slices were pulverized using a pestle and mortar in the presence of liquid nitrogen. […] The hetero-oligomeric complex was isolated by subjecting the eluated protein to Ni-NTA Agarose beads and the bound proteins were eluted by 400 mM imidazole using a standard procedure (Sigma protocol for P 6611). […] The composition of hetero-oligomeric SP1 was determined by SDS-PAGE and visualized by silver staining.

[6] = Resistance of SP1 complex to organic solvents; format: physicochemical
Experimental: 150 ul of 1 mg/ml samples in 10 mM sodium phosphate pH 7 were lyophilized overnight and resuspended in 150 μl organic solvents for 10 minutes. Following a 30 minutes speed vac the samples were resuspended in 150 μl water and analyzed by SDS-PAGE.
In order to further test the stability of SP1 and SP1 oligomeric complexes, wild type SP1 and the SP1 variant Cys2 SP1 were dissolved in buffer, exposed to organic solvents methanol and hexane, and analyzed by SDS-PAGE (FIG. 18).
In order to determine the stability of the SP1 complex in organic solvents, SP1 and Cys2 SP1-variant (SEQ ID NO: 3) were dissolved in organic solvents, dried, reconstituted with aqueous solvent, and separated on SDS-PAGE.

Molecule	IC50 ([1]; Homo sapiens, HT-29 cells, dose inhibiting 50% of cell growth, read-out: IC50) [µg/mL]	biological activity after storage in aqueous solution ([1]; at least 3 weeks storage in aqueous solution)	DOX complexing after oxidation prior to DOX addition ([2]; oxidized protein (H2O2))	DOX complex formation [2]	DOX complex formation ([2]; listed as Cys2 SP1 variant)	FA complexing at low ligand concentration ([3]; 10 μM FA, 10 mM DTT)	efficiency of FA complexing in the presence of reducing agents ([3]; 10 mM DTT)	retention of the flourescein-amine ([3]; absence of the reducing agent (GSH), 492/278 ratio)	efficiency of FA complexing relative to wild type SP1 ([3]; ≧100 μM FA)	Heat stability [4]	oligomeric complex formation, stability and resistance [5]	protease resistance after hexane treatment ([6]; hexane-treated, data not shown)	resistance of oligomeric complex to organic solvents ([6]; methanol, hexane, SDS-PAGE)	oligomeric complex formation, stability and resistance ([5]; listed as CRGD SP1)	oligomeric complex formation, stability and resistance ([5]; listed as RGDC SP1)
CC(=O)O[C@H]1C(=O)[C@@]2(C)[C@H]([C@H](OC(=O)c3ccccc3)[C@]3(O)C[C@H](OC(=O)[C@H](O)[C@@H](NC(=O)c4ccccc4)c4ccccc4)C(C)=C1C3(C)C)[C@]1(OC(C)=O)CO[C@@H]1C[C@@H]2O [PTX, paclitaxel]	~0.01 (≈ 0.0117 µM)	becomes inactive													
Cys2: SP1 variant with cysteine residue inserted in position 2, SEQ ID NO:3 (protein, Sp1 mutant variant Cys in position 2) MCATRTPKLVKHTLLTRFKDEITREQIDNYINDYTNLLDLIPSMKSFNWGTDLGMESAELNRGYTHAFESTFESKSGLQEYLDSAALAAFAEGFLPTLSQRLVIDYFLY			eliminates DOX complexing	effective binding	much greater extent	efficient complexing	greater than 3 fold	negligible	greater than 3 fold	+	formed homo- and hetero-oligomeric complexes	resistance to protease treatment	Predominantly high molecular weight oligomer complex form; also recorded: even more resistant than the wild type		
CRGD2: SP1 fusion protein with N-terminal tumor specific peptide CRGD, SEQ ID NO:5 (protein, Sp1 mutant variant Cys, Arg, Gly and Asp inserted into position 2) MCRGDATRTPKLVKHTLLTRFKDEITREQIDNYINDYTNLLDLIPSMKSFNWGTDLGMESAELNRGYTHAFESTFESKSGLQEYLDSAALAAFAEGFLPTLSQRLVIDYFLY				effective binding						+	formed a boiling stable and protease resistant dodecamer			formed homo- and hetero-oligomeric complexes	
RGDC2: SP1 fusion protein with N-terminal peptide RGDC, SEQ ID NO:6 (protein, Sp1 mutant variant Arg, Gly, Asp and Cys inserted into position 2) MRGDCATRTPKLVKHTLLTRFKDEITREQIDNYINDYTNLLDLIPSMKSFNWGTDLGMESAELNRGYTHAFESTFESKSGLQEYLDSAALAAFAEGFLPTLSQRLVIDYFLY				effective binding						+	formed a boiling stable and protease resistant dodecamer				formed homo- and hetero-oligomeric complexes

Reference: patent publication US20150273076A1, “SP1 POLYPEPTIDES, MODIFIED SP1 POLYPEPTIDES AND USES THEREOF” (Fulcrum SP Ltd., priority 2006, published 2015)
